For the series, the target named is tau 2N4R (tau-441) wild type (human, UniProt P10636-8 1-441). Description: EMSA.

B1: 24-bp dsDNA (dsDNA)
DNA 1: TCGACACGGAAATGTTGAATACTA
DNA 2: TAGTATTCAACATTTCCGTGTCGA
With B1, the binding result was “binds”.
